T1: His-TgMIC3 (Toxoplasma gondii, UniProt A0A7J6KDB0 27-383)
T1 chain: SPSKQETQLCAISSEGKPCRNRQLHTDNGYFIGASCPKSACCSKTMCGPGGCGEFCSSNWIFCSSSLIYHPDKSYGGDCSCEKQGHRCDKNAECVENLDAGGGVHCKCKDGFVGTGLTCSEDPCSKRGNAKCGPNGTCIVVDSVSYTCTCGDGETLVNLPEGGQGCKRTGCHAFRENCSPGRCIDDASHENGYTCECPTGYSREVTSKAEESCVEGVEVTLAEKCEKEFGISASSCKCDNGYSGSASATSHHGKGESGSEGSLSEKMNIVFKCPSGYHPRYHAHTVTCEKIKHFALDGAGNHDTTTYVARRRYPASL

T2: His-TgROP9 (Toxoplasma gondii, UniProt S8F3X8 1-353)
T2 chain: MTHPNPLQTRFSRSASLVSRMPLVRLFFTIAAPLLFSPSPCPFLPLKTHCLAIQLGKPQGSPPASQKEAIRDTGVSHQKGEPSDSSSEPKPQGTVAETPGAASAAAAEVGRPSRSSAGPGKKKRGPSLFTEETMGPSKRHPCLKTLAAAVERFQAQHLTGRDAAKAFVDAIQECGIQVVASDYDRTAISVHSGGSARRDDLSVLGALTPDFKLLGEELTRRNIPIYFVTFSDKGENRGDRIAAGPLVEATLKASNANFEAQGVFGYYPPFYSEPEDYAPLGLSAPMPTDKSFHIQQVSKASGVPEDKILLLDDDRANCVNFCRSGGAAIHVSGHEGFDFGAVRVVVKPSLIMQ

T3: His-TgSAG2 (Toxoplasma gondii)
T3 chain: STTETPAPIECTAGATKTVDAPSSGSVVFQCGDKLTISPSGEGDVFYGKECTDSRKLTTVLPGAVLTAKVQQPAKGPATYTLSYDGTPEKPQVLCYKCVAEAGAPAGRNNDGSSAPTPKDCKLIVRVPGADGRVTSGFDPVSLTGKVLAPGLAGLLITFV

B1: GST-tagged recombinant sortilin protein (natural protein)
chain: MYTSRTPHGGLRRWPLSRSSVSAVASRVLSRSVAFHRRLASFLLSRKKTPLCALSSRPSGLQASSGVQTVTMAHSFARGRPPAAGRTLAVFLAFLAVLSPSLLPEFFSEDAQKRESSVLVANAASYANKKVSVSEVSFDSHIEDIQWCGTDHRTILLKTRRGRLYRSQDGGKSWTEITDLLKSSEAATGTVAVDSIIVSPVDKRVVLIVGSKRNHFISEDSAATFRRLKYKNTIHNFHFHPTRPKYAILSTWTDACYSGSGTASRAQSQQDCNHQLFYTRDLGRSFKLVADYVVQFSWGDKKLGNTDHIFFTQHRGRSGDQPRYGGWSKNVDLMYTPDFGATITRLVYRGNKFLLSNGYFFVAKVKDAAKQTVSLLVSTDGGKSFQMAKLPVEIEERSYTVLDTSEDAIMLHVNHGHDNKGDTGNVYISDAKGVRYSLSLPNNIRTSTGECEFDKVLSLEGVYLANFKDSVDSSASVDGGQQGDLEKLEEEIEEEAEGVQVDLEKKHKSVATRSRQEEVIRTVISFDKGGVWSYLKAPKVDSRGQKIDCPPDRCWLHLNGITRFSDFAPFYSVENAVGIIMGTGNVGSYLRPEKDEANTYLSRDGGVSWIEAHKGAFIYEMGDHGGLLVMADDTKKTNQVVFSWNEGQSWYDFELGAAPLFVDNIVIEPNASSVEFLLYGKREQDSAGVLFHLDFNALNQQQCKGIWAADSVSSDYETWSPSDGRAGGERCILGKHITYTRRKQTSECFNGRDFDRPKVSKVCPCTMEDYECEFGFTRAIGSTQCVATDAAAAAAATATGLAQFADESDAAAAAACTSSSFFYTSAYRKVPGDVCEGGWMPEKVAVPCPAHSPVSRGGKTVLLLLLFIVVVMVVINYLAKTGRLKKFFRNAGFDSFANVSYGLVGASAGGPGGWLDQEAGESRRGEELGERSKYEPELGFIEAEQDENEEDAPTLMNYGNAAGGQRTSGMSSRSPKPTEDFELDDSRPLFPSHVSSRETQGSSGLHPRSTSTENEPIPRLAPPRFDEDNVELL

How the values were obtained:
[1] = biological target: T4, GST-Vps10 (Vps10 subdomain of T. gondii sortilin) (Toxoplasma gondii, UniProt A0A7J6KCY2); assay: bio-layer interferometry, biotinylated GST-Vps10 on SSA sensor; assay type: binding; conditions: AF38469 at 100-500 nM diluted in DMSO; PBS, DMSO as negative control
T4 construct: gene TGRH88_014830; Vps10 subdomain (160-667 aa) of 1033-aa sortilin; GST-tagged from pGEX-4T-1, E. coli BL21 (DE3); tag kept; biotinylated with NHS-PEG12-biotin

[2] = biological target: T1, His-TgMIC3; assay: BLI
[3] = biological target: T2, His-TgROP9; assay: BLI
[4] = biological target: T3, His-TgSAG2; assay: BLI

Molecule	bio-layer interferometry, biotinylated GST-Vps10 on SSA sensor [1]	Kd [2] [pM]	Kd [3] [pM]	Kd [4] [pM]
Cc1cccc(NC(=O)c2ccc(C(F)(F)F)cc2C(=O)O)n1 [AF38469]	only the Vps10 subdomain could bind to AF38469 with high affinity			
B1		847	963	915000

Reference: publication PMC10910794, “Toxoplasma sortilin interacts with secretory proteins and it is critical for parasite proliferation” (Parasites & Vectors, 2024)
